Results on seven molecules are retold here after patent US20250270343A1 (Alector, published 2025).

Assay [1] addresses T1, mouse GPNMB endogenously expressed on B16F10 cells (mouse, UniProt Q99P91 23-574).
T1 construct: whole, on cells; also called moGPNMB
T1 sequence (looked up): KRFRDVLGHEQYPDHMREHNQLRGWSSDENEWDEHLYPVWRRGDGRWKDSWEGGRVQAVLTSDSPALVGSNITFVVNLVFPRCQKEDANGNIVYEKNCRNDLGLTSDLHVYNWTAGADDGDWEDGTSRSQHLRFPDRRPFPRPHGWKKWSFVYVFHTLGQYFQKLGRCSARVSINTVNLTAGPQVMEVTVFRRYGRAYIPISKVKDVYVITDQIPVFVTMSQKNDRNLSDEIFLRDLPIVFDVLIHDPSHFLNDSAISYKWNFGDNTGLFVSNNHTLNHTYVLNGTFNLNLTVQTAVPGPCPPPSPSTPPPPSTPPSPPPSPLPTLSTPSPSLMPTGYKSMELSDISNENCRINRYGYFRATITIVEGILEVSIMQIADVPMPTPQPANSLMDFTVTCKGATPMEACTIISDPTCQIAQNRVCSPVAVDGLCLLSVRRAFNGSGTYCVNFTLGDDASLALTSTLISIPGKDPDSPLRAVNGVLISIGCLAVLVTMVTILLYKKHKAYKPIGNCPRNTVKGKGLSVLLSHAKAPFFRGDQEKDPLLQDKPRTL
Put plainly: FACS, B16F10 cells. A digest of the protocol: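 Cells (100,000/well) stained 30 min on ice with anti-GPNMB antibody in PBS/2% FBS/2 mM EDTA, then 1 μg/ml APC anti-human IgG for 30 min on ice. Binding read by flow cytometry as MFI.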
Background: In flow cytometry, cells or beads pass a laser one at a time.

Assay [2] concerns the target T2, soluble cynomolgus GPNMB (recombinant extracellular domain) (cynomolgus, UniProt Q14956 23-499 (human entry), limits assumed).
T2 chain: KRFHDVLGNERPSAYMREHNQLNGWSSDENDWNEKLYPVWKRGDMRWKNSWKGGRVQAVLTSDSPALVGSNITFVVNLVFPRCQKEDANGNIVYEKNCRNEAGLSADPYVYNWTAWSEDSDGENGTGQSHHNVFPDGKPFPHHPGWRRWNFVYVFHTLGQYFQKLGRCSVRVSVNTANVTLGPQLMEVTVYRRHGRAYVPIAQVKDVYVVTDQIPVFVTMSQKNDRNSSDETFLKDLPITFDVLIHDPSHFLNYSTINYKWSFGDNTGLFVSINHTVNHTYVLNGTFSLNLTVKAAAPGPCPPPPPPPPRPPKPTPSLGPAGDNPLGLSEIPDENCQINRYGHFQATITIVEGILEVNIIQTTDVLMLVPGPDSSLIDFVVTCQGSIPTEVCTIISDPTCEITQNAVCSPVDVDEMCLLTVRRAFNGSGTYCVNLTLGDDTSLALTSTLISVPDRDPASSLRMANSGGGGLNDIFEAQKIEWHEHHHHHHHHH
In words: SPR Carterra, Ab immobilized. A digest of the protocol:
(§1)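 Antibodies amine-coupled on HC200M chip in a 96-spot array; recombinant GPNMB ECD analytes injected at 2.5–600 nM, lowest to highest, without regeneration. Running buffer HBS-EP+ with 0.5 mg/ml BSA; two buffer blanks between species series. Kinetics fitted to yield affinity estimates.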

Assay [3] has as its target T3, soluble human GPNMB (recombinant extracellular domain) (human, UniProt Q14956 23-498).
T3 construct: also called huGPNMB; recombinant human GPNMB extracellular domain; not shown: C-terminal polyhistidine or Avi-His tag
T3 sequence: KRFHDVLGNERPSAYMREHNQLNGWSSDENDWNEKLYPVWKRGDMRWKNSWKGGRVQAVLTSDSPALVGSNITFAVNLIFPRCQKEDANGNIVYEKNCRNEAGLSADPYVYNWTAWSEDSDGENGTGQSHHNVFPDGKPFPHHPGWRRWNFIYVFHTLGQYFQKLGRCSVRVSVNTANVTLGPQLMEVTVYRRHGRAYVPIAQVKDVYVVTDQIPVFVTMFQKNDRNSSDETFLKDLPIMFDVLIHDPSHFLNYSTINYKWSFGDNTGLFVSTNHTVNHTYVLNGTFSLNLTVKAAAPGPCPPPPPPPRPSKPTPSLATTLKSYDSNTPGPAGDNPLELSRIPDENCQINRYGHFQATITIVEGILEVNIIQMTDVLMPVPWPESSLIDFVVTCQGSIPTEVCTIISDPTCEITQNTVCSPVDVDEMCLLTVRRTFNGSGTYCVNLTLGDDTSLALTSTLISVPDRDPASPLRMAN
Put plainly: SPR Carterra, Ab immobilized. In outline:
as §1

Assay [4] concerns the target T1, mouse GPNMB endogenously expressed on …. In words: FACS on B16F10 mouse melanoma cells (endogenous mouse GPNMB); single antibody concentration (not given); APC anti-human IgG secondary; MFI as fold over background. As to the method: Recombinant anti-GPNMB antibodies of the present disclosure were examined for their ability to bind human and/or mouse GPNMB expressed on Freestyle293-huGPNMB+ or B16F10 cells, respectively. B16F10 cells are a murine melanoma cell line from a C57BL/6J mouse that endogenously express high levels of mouse GPNMB. The antibodies were also tested for their ability to bind to a human macrophage cell line (U937 cells) engineered to express human GPNMB. Cells were harvested, plated at 100,000 cells/well in a 96-well round bottom plate, and incubated in 100 μl FACS buffer (PBS containing 2% FBS, 2 mM EDTA) containing anti-GPNMB monoclonal antibodies of the present disclosure for 30 minutes on ice. Cells were then washed and incubated in 100 ul FACS buffer containing 1 μg/ml APC-conjugated anti-human IgG secondary antibody for 30 minutes in ice. Cells were washed twice in cold FACS buffer and acquired on a BD FACS Canto. Data analysis and calculation of MFI values was performed with FlowJo (TreeStar) software version 10.0.7. […]

B1: anti-GPNMB antibody GPN-34 (antibody, human IgG1, V domains shown)
VH: EVKLVESGGGLVQPGRSLKLSCAASGFNFYDYWMGWVRQAPGKGLEWIGEINKDSRTINYTPFLKDRFTISRDNAQNTLYLQMSKLGSEDTAIYYCAREGRVPFDYWGQGVMVTVSS
VL: DIQMTQSPSSMSVSLGDTVTIPCRASQDVGSYVNWFQQKPGKSPRHMIYRATNLADGVPSRFSGSRSGADYSLTISSLESEDVADYHCQQYAEYPLTFGSGTKLEIK
notes: chimeric
B1: the “MFI fold over background” value in assay [1] worked out at 1.1 fold. In assay [2], the dissociation constant (Kd) is 0.4 nM, the koff was determined as 0.00011 s⁻¹ and the kon was found to be 250000 M⁻¹ s⁻¹. Also, in assay [3], the equilibrium dissociation constant (Kd) worked out at 0.4 nM, the koff came out at 6.3e-05 s⁻¹ and the kon was 190000 M⁻¹ s⁻¹. Moreover, the binding result in assay [4] is reported as “no binding”.

B2: anti-GPNMB antibody GPN-30 (antibody, human IgG1, V domains shown)
VH: EVQLQQSGPELVNPGASVRISCKASGYSFTGYYMNWVKQSPEKSLEWIGEINPNTGFTTYNQNFKAKATLTVDKSSSTAYIQLKSLTSEDSAVYYCTRPSPSFDYWGQGTTLTVSS
VL: DIQMTQSPSSLSASLGERGSLTCRASQEISGHLSWLQQKPDGTIKRLIYAASTLDSGVPKRFSGSRSGSDYSLTISSLESEDFADYYCLQYASYPYTFGGGTKLEIK
notes: chimeric
Consider B2, for which, in assay [1], the “MFI fold over background” value came to 1 fold. In assay [2], the dissociation constant Kd came to 5.1 nM, the koff was found to be 0.00013 s⁻¹ and the association rate constant (kon) came out at 26000 M⁻¹ s⁻¹. For the same molecule, in assay [3], the dissociation constant (Kd) amounted to 5 nM, the off-rate (koff) turned out to be 0.00012 s⁻¹ and the kon came to 26000 M⁻¹ s⁻¹. In assay [4], the binding result is “no binding”.

B3: anti-GPNMB antibody GPN-07 (antibody, human IgG1, V domains shown)
VH: QVQLQQSGAEQVKPGASVKLSCKASGYTFTSYYMYWVKQRPGQGLEWIGEINPSNGGTYFNEKFKSKATLTVDKSSSTAYMHLSSLTSEDSAVYYCTRGGTYYAYWGQGTLVTVSA
VL: DIQMTQSPSSLSASLGERVSLTCRASQEMSGHLSWLQQKPDGTIKRLIYAASTLDSGVPKRFSGSRSGSDYSLTISSLESEDFADYYCLQYASYPYTFGGGTKLEIK
notes: chimeric
In the case of B3, the “MFI fold over background” value in assay [1] was found to be 1 fold. In assay [2], the Kd is 11.3 nM, the koff turned out to be 0.00025 s⁻¹ and the on-rate (kon) came to 22000 M⁻¹ s⁻¹. For the same molecule, in assay [3], the Kd was 16.6 nM, the koff is 0.00029 s⁻¹ and the on-rate constant (kon) was 19000 M⁻¹ s⁻¹. Also, in assay [4], the binding result was “no binding”.

B4: anti-GPNMB antibody GPN-09 (antibody, human IgG1, V domains shown)
VH: QVQLQQSGAELVKPGASVKLSCKASGYTFTSYYIYWVKQRPGQGLEWIGEINPSNGGTYFNEKFKNKATLTVDKSSSTAYMQLSSLTSEDSAVYYCTRGGNYYAYWGQGTLVTVSA
VL: DIQMTQSPSSLSASLGERVSLTCRASQEISGHLGWLQQKPDGTIKRLIYAALTLDSGVPKRFSGSRSGSDYSLTISSLESEDFADYYCLQYASYPYTFGGGTKLEIK
notes: chimeric
B4: the “MFI fold over background” value in assay [1] came to 1 fold. In assay [2], the Kd turned out to be 8.4 nM, the koff came out at 0.00012 s⁻¹ and the on-rate constant (kon) turned out to be 14000 M⁻¹ s⁻¹. In assay [3], the Kd was 9 nM, the dissociation rate constant (koff) is 0.00011 s⁻¹ and the on-rate constant (kon) was 12000 M⁻¹ s⁻¹. Further, the binding result in assay [4] was “no binding”.

B5: anti-GPNMB antibody GPN-03 (antibody, human IgG1, V domains shown)
VH: QVQLQQSGPELVKPGASVKLSCKASGYTFTNYYMYWVKQRPGQGLEWIGEINPRNGGTNFNEKFKSKATLTVDKSSSTAYMQLSSLTFEDSAVYYCTTGLAYWGQGTLVTVSA
VL: DVVMTQTPLSLPVSLGDQASISCRSSQSLVHSDGNTYLHWYLQKPGQSPKLLIYKVSTRFSGVPDRFSGSGSGTDFTLKISRVEAEDLGVYFCSQSTHVPWTFGGGTKLEIK
notes: chimeric
As for B5, the “MFI fold over background” value in assay [1] was found to be 1.1 fold. In assay [2], the Kd stood at 38.7 nM, the koff worked out at 0.0021 s⁻¹ and the kon is 54000 M⁻¹ s⁻¹. For the same molecule, in assay [3], the dissociation constant (Kd) turned out to be 29.6 nM, the koff was found to be 0.0019 s⁻¹ and the on-rate (kon) stood at 100000 M⁻¹ s⁻¹. Moreover, the binding result in assay [4] is reported as “no binding”.

B6: anti-GPNMB antibody GPN-06 (antibody, human IgG1, V domains shown)
VH: QVQLQQSGAELVKPGASVKLSCKASGYTFTNYYMYWVKQRPGQGLEWIGEINTRNGGTNFNEKFKSKATLTVDKSSSTAYMQLSSLTSEDSAVYYCTTGFAYWGQGTLVTVSA
VL: DIQMTQSPASLSASVGETVTITCRASENIYSYLVWYQQNQGKSPQLLVYNAKTLAEGVPSRFSGSGSGTQFSLKINSLQPEDFGTYYCQHHYGTPFTFGSGTKLEIK
notes: chimeric
Regarding B6, in assay [1], the “MFI fold over background” value turned out to be 1 fold. Also, in assay [2], the Kd came out at 97.9 nM, the koff turned out to be 0.0021 s⁻¹ and the on-rate constant (kon) is 21000 M⁻¹ s⁻¹. In addition, in assay [3], the Kd is 73.9 nM, the koff is 0.0032 s⁻¹ and the kon was 54000 M⁻¹ s⁻¹. In addition, in assay [4], the binding result was “no binding”.

B7: anti-GPNMB antibody GPN-08 (antibody, human IgG1, V domains shown)
VH: QVQLQQPGAELVKPGASVKLSCRASGYTFTSYWLHWVKQRPGQGLEWIGEINPSDGRTNYIEKVKTKATLTVDKSSSTAYMQLSSLTSEDSAVYYCARSGGNYAWFAYWGQGTLVTVSA
VL: DIVMTQSHKFMSTSVGDRVSITCKASQDVSPSVAWYQQRPGQSPKLLIYSASYRYTGVPDRFTGSGSGTDFTFTISSVQAEDLAVYYCQQHYSIPLTFGAGTKLELK
notes: chimeric
For B7, the “MFI fold over background” value in assay [1] was 1 fold. Besides, in assay [2], the Kd amounted to 32.8 nM, the koff was found to be 0.0015 s⁻¹ and the association rate constant (kon) was determined as 48000 M⁻¹ s⁻¹. Further, in assay [3], the dissociation constant (Kd) came to 36 nM, the off-rate constant (koff) was found to be 0.0014 s⁻¹ and the on-rate (kon) worked out at 40000 M⁻¹ s⁻¹. Further, the binding result in assay [4] is recorded as “no binding”.

In general, Kd refers to the concentration at which binding is half-saturated. For orientation: koff means a measure of how fast the partners let go of each other. In general, kon refers to a measure of how fast the partners come together.
